Primed or numbered codes have the meaning given here. [ ]: non-standard residue; d: D form. α′‑methyl‑α′,β′‑epoxide = C-terminal α′-methyl-α′,β′-epoxyketone; hPhe = N[C@@H](CCc1ccccc1)C(=O)O; Nle = CCCC[C@H](N)C(=O)O
These binders were tested against proteasome in bovine aortic endothelial (BAE) cells (bovine) (assay: cell-based or functional assay).

Binder	IC50, inhibition of BAE cell proliferation ([methyl-3H]-thymidine incorporation) [nM]
Ac-LALL-{α′‑methyl‑α′,β′‑epoxide} [Ac-LALL-epoxide]	700
Ac-ALLL-{α′‑methyl‑α′,β′‑epoxide} [Ac-ALLL-epoxide]	83

Results, then the binder that gave them:

IC50, inhibition of BAE cell proliferation ([methyl-3H]-thymidine incorporation) [nM]	Binder
20	Ac-[hPhe]LFL-{α′‑methyl‑α′,β′‑epoxide} [compound 16]
7	Ac-LLFL-{α′‑methyl‑α′,β′‑epoxide} [Ac-LLFL-epoxide]
34	Ac-LLAL-{α′‑methyl‑α′,β′‑epoxide} [Ac-LLAL-epoxide]
16	Ac-LFLL-{α′‑methyl‑α′,β′‑epoxide} [Ac-LFLL-epoxide]

Target: proteasome in bovine aortic endothelial (BAE) cells (bovine)
Test: cell-based or functional assay
Remark: another data set of the same source

IC50, inhibition of BAE cell proliferation [nM]	Binder
400	{N‑dimethylaminobenzoyl}-Pro-Phe-Leu-{α′,β′‑epoxide with α′‑methyl (epoxyketone)} (also: C-terminal Leu as α′,β′-epoxyketone (epoxide) with α′-methyl substituent) [N-dimethylaminobenzoyl-PFL-EX]
600	isooctanoyl-Pro-Phe-Leu-{α′,β′‑epoxide with α′‑methyl (epoxyketone)} (also: C-terminal Leu as α′,β′-epoxyketone (epoxide) with α′-methyl substituent) [Isooctanioc-PFL-Ex]
58000	Ac-GPFL-{α′‑methyl‑α′,β′‑epoxide} [Ac-GPFL-Ex]
400	pyrazinecarbonyl-Pro-Phe-Leu-{α′,β′‑epoxide with α′‑methyl (epoxyketone)} (also: C-terminal Leu as α′,β′-epoxyketone (epoxide) with α′-methyl substituent) [Pyrazinecarbonyl-PFL-Ex]
53000	Ac-[Nle]PFL-{α′‑methyl‑α′,β′‑epoxide} [Ac-NorLPFL-Ex]

— US20040266664A1 (YALE UNIVERSITY, published 2004)
